B1: Naglu-IGFII: Fusion protein of human Naglu and IGF-II residues 8-67 via GAG3 linker; SEQ ID NO:20, SEQ ID NO:25; positive control (protein)
chain: MEAVAVAAAVGVLLLAGAGGAAGDEAREAAAVRALVARLLGPGPAADFSVSVERALAAKPGLDTYSLGGGGAARVRVRGSTGVAAAAGLHRYLRDFCGCHVAWSGSQLRLPRPLPAVPGELTEATPNRYRYYQNVCTQSYSFVWWDWARWEREIDWMALNGINLALAWSGQEAIWQRVYLALGLTQAEINEFFTGPAFLAWGRMGNLHTWDGPLPPSWHIKQLYLQHRVLDQMRSFGMTPVLPAFAGHVPEAVTRVFPQVNVTKMGSWGHFNCSYSCSFLLAPEDPIFPIIGSLFLRELIKEFGTDHIYGADTFNEMQPPSSEPSYLAAATTAVYEAMTAVDTEAVWLLQGWLFQHQPQFWGPAQIRAVLGAVPRGRLLVLDLFAESQPVYTRTASFQGQPFIWCMLHNFGGNHGLFGALEAVNGGPEAARLFPNSTMVGTGMAPEGISQNEVVYSLMAELGWRKDPVPDLAAWVTSFAARRYGVSHPDAGAAWRLLLRSVYNCSGEACRGHNRSPLVRRPSLQMNTSIWYNRSDVFEAWRLLLTSAPSLATSPAFRYDLLDLTRQAVQELVSLYYEEARSAYLSKELASLLRAGGVLAYELLPALDEVLASDSRFLLGSWLEQARAAAVSEAEADFYEQNSRYQLTLWGPEGNILDYANKQLAGLVANYYTPRWRLFLEALVDSVAQGIPFQQHQFDKNVFQLEQAFVLSKQRYPSQPRGDTVDLAKKIFLKYYPRWVAGSWGAPGGGGGAAAAAGGGGGGAPGGGGGAAAAAGGGGGGAPGGGGGAAAAAGGGGGGAPLCGGELVDTLQFVCGDRGFYFSRPASRVSRRSRGIVEECCFRSCDLALLETYCATPAKSE
notes: Fusion protein of human Naglu and IGF-II residues 8-67 via GAG3 linker; positive control
B2: Naglu-tPRGN: Fusion protein of human Naglu and Progranulin C-terminal peptide (tPRGN) via GAG3 linker; SEQ ID NO:18, SEQ ID NO:23 (protein)
chain: MEAVAVAAAVGVLLLAGAGGAAGDEAREAAAVRALVARLLGPGPAADFSVSVERALAAKPGLDTYSLGGGGAARVRVRGSTGVAAAAGLHRYLRDFCGCHVAWSGSQLRLPRPLPAVPGELTEATPNRYRYYQNVCTQSYSFVWWDWARWEREIDWMALNGINLALAWSGQEAIWQRVYLALGLTQAEINEFFTGPAFLAWGRMGNLHTWDGPLPPSWHIKQLYLQHRVLDQMRSFGMTPVLPAFAGHVPEAVTRVFPQVNVTKMGSWGHFNCSYSCSFLLAPEDPIFPIIGSLFLRELIKEFGTDHIYGADTFNEMQPPSSEPSYLAAATTAVYEAMTAVDTEAVWLLQGWLFQHQPQFWGPAQIRAVLGAVPRGRLLVLDLFAESQPVYTRTASFQGQPFIWCMLHNFGGNHGLFGALEAVNGGPEAARLFPNSTMVGTGMAPEGISQNEVVYSLMAELGWRKDPVPDLAAWVTSFAARRYGVSHPDAGAAWRLLLRSVYNCSGEACRGHNRSPLVRRPSLQMNTSIWYNRSDVFEAWRLLLTSAPSLATSPAFRYDLLDLTRQAVQELVSLYYEEARSAYLSKELASLLRAGGVLAYELLPALDEVLASDSRFLLGSWLEQARAAAVSEAEADFYEQNSRYQLTLWGPEGNILDYANKQLAGLVANYYTPRWRLFLEALVDSVAQGIPFQQHQFDKNVFQLEQAFVLSKQRYPSQPRGDTVDLAKKIFLKYYPRWVAGSWGAPGGGGGAAAAAGGGGGGAPGGGGGAAAAAGGGGGGAPGGGGGAAAAAGGGGGGAPTKCLRREAPRWDAPLRDPALRQLL
B3: Naglu-SapDC: Fusion protein of human Naglu and Prosaposin DC peptide (SapDC) via GAG3 linker; SEQ ID NO:19, SEQ ID NO:24 (protein)
chain: MEAVAVAAAVGVLLLAGAGGAAGDEAREAAAVRALVARLLGPGPAADFSVSVERALAAKPGLDTYSLGGGGAARVRVRGSTGVAAAAGLHRYLRDFCGCHVAWSGSQLRLPRPLPAVPGELTEATPNRYRYYQNVCTQSYSFVWWDWARWEREIDWMALNGINLALAWSGQEAIWQRVYLALGLTQAEINEFFTGPAFLAWGRMGNLHTWDGPLPPSWHIKQLYLQHRVLDQMRSFGMTPVLPAFAGHVPEAVTRVFPQVNVTKMGSWGHFNCSYSCSFLLAPEDPIFPIIGSLFLRELIKEFGTDHIYGADTFNEMQPPSSEPSYLAAATTAVYEAMTAVDTEAVWLLQGWLFQHQPQFWGPAQIRAVLGAVPRGRLLVLDLFAESQPVYTRTASFQGQPFIWCMLHNFGGNHGLFGALEAVNGGPEAARLFPNSTMVGTGMAPEGISQNEVVYSLMAELGWRKDPVPDLAAWVTSFAARRYGVSHPDAGAAWRLLLRSVYNCSGEACRGHNRSPLVRRPSLQMNTSIWYNRSDVFEAWRLLLTSAPSLATSPAFRYDLLDLTRQAVQELVSLYYEEARSAYLSKELASLLRAGGVLAYELLPALDEVLASDSRFLLGSWLEQARAAAVSEAEADFYEQNSRYQLTLWGPEGNILDYANKQLAGLVANYYTPRWRLFLEALVDSVAQGIPFQQHQFDKNVFQLEQAFVLSKQRYPSQPRGDTVDLAKKIFLKYYPRWVAGSWGAPGGGGGAAAAAGGGGGGAPGGGGGAAAAAGGGGGGAPGGGGGAAAAAGGGGGGAPDGGFCEVCKKLVGYLDRNLEKNSTKQEILAALEKGCSFLPDPYQKQCDQFVAEYEPVLIEILVEVMDPSFVCLKIGACPSAHKPLLGTEKCIWGPSYWCQNTETAAQCNAVEHCKRHVWN

Key:
Naglu KO mice [1] = experiment: Sanfillipo B specific biomarkers in brain by LC/MS; format: in vivo; conditions: intrathecal, 520 mg/kg brain, especially 2× weekly and 3× weekly
Description: (§1) To evaluate the in vivo activity of Naglu-SPP and its efficacy as a therapeutic for the treatment of lysosomal storage diseases, particularly San B, Naglu-SPP was administered to Naglu KO mice via intrathecal injection. Intrathecal administration of Naglu-IGFII served as a positive control. The experimental conditions used for this assay are described in Tables 10 and 11 below.
Using the same LC/MS technology as used for the quantification of heparin sulfate (see above), the presence of Sanfillipo B specific biomarkers in brains of treated KO mice were evaluated. Naglu deficiency causes the accumulation of certain heparin sulfate degradation products (presented in FIGS. 13A-C) which are natural substrates of Naglu. These biomarkers are the most relevant indications for Naglu deficiency.

wild-type rats [2] = experiment: Naglu enzyme activity in liver and brain after intrathecal administration (biodistribution); format: in vivo; conditions: 385 ug/animal; for Naglu enzyme activity in brain: 4 or 24 hours post dose
Description: (§2) To evaluate biodistribution of the SORT1-binding Naglu fusion proteins, an in vivo study was conducted using wild-type rats subjected to intrathecal administration of vehicle control (PBS), rhNaglu, Naglu-IGFII, Naglu-SPP, Naglu-SapDC or Naglu-tPRGN. Details of the experimental design are provide in Table 9 below. Previous experiments had shown that Naglu-IGFII but not rhNaglu penetrates into brain tissue and is targeted to lysosomes after intrathecal injection. Accordingly, rhNaglu and Naglu-IGFII were utilized in this study as negative and positive controls, respectively.
Rats were sacrificed either 4 or 24 hours post intrathecal administration of the respective fusion protein and total Naglu enzyme activity in the animals' liver and brain tissue was determined using a well-established enzyme activity assay (FIGS. 7A and B). Briefly, brain and liver tissue homogenates were prepared and incubated in the presence of a Naglu specific substrate, i.e., methylumbelliferyl-N-acetyl-α-D-glucosainide; accumulation of cleavage product was then measured by examining fluorescence intensity at 360/460 nm (excitation/emission) using a fluorescent plate reader.

Naglu KO mice [3] = experiment: Heparan sulfate in brain by LC/MS; format: in vivo; conditions: intrathecal, 520 mg/kg brain, 2× weekly and 3× weekly
Description: as §1
In a second assay, we evaluation the total amount of heparan sulfate in the brain of treated KO mice. […] To measure heparan sulfate in mouse brain tissue, a highly sensitive LC/MS method was applied (Lawrence et al, 2012, Nat Chem Biol. 2012 Jan. 8; 8(2):197-204). Briefly, total GAG from brain tissue was extracted by a DEAE column and a desalting column, and then dried and weighted. The extracted GAG was treated with heparin lyases that specifically release unique mono, di and tri saccharides of heparan sulfate, and the sample was then analyzed by LC/MS. The released saccharides were identified and quantified using commercially available saccharide standards of heparan sulfate degradation.

Naglu KO mice [4] = experiment: Total glycosaminoglycan (GAG) in liver and brain, dimethylmethylene blue; format: in vivo; conditions: intrathecal, 520 mg/kg brain; brain significant in 2× and 3× weekly groups
Description: as §1
The activity of Naglu-SPP and Naglu-IGFII in vivo was also evaluated by examining the intracellular accumulation of natural substrates of Naglu in treated mice. One such assay was designed to evaluate the total concentration of glycosaminoglycan (GAG) in liver (FIG. 11A) and brain (FIG. 11B) tissue of treated mice in accordance with de Jong et al. (Clin Chem 38(6):803-807, 1992). Briefly, liver tissue was homogenized and total GAG quantified using dimethylmethylene blue. Brain tissue was homogenized and then incubated with pronase and benzonase to break down protein and nucleic acid. Total GAG was then extracted by passing the brain homogenate through a DEAE column. The eluate was further buffer exchanged through a desalting column, and the total GAG content was quantified using dimethylmethylene blue. […] The reduction of total GAG amount in brain tissue was significant in the 2× weekly as well as the 3× weekly treatment groups.

Naglu KO mice [5] = experiment: Naglu enzyme activity in tissues of Naglu KO mice after intrathecal administration; format: in vivo; conditions: 520 mg/kg brain, 24 hrs post final dose
Description: as §1
24 hours after intrathecal administration of each respective fusion protein, Naglu KO mice were sacrificed and Naglu enzyme activity in various tissues was assayed. Total Naglu activity was evaluated using a well-established enzyme activity assay. Briefly, tissue homogenate was incubated in the presence of the Naglu specific substrate methylumbelliferyl-N-acetyl-α-D-glucosainide, and accumulation of cleavage product was measured by examining fluorescence intensity at 360/460 nm (excitation/emission) using a fluorescent plate reader. […] This increase in enzyme activity was observed over the duration of the 3 week treatment period.

wild-type rats [6] = experiment: Immunohistochemistry of Naglu protein in brain tissue after intrathecal administration; format: in vivo; conditions: for Naglu immunostaining in cerebral cortex / brain parenchyma: 4 and 24 hours post treatment
Description: as §2
Rats were sacrificed either 4 or 24 hours post intrathecal administration of the respective fusion protein. Brain tissue samples were collected, fixed in 10% NBF and processed for paraffin embedding. 5 μm paraffin sections from each tissue assayed were subjected to immunostaining using an anti-human Naglu antibody.

Naglu KO mice [7] = experiment: Immunohistochemical staining of Lamp-1, GFAP and Iba-1 in brain and liver; format: in vivo; conditions: intrathecal
Description: as §1
The lysosomal targeting of Naglu-SPP and Naglu-IGFII was further examined by immunohistochemical analysis. Tissue samples were collected, fixed in 10% NBF and processed for paraffin embedding. For each tissue assayed, 5 μm paraffin sections was subjected to immunostaining using antibodies against lamp lysosomal associated membrane protein 1 (Lamp-1), glial fibrillary acidic protein (GFAP) and the ionized calcium-binding adapter molecule 1 (Iba-1).

[8] = tested on: SORT1 overexpressing cells; experiment: Cellular uptake in Sortilin overexpressing cells (intracellular Naglu enzyme activity); format: cell-based; conditions: absence of Neurotensin
Description: A cell line was established overexpressing SORT1, using standard technologies known in the art. […] After a specified period of time, the supernatant was removed and the cells were washed repeatedly. Then, cells were lysed and each sample was assayed for Naglu enzyme activity.

| Molecule | accumulation of three GAG cleavage products (San B biomarkers) in brain (Naglu KO mice [1]) | rank of Naglu enzyme activity in brain among treatments (wild-type rats [2]) | Naglu enzyme activity in brain (wild-type rats [2]) | total amount of heparan sulfate accumulation in brain tissue (Naglu KO mice [3]) | total GAG concentration in liver and brain tissue vs vehicle control (Naglu KO mice [4]) | Naglu activity in liver and brain tissue vs vehicle control (Naglu KO mice [5]) | Naglu immunostaining in cerebral cortex / brain parenchyma (wild-type rats [6]) | Naglu immunostaining in cerebellum and hippocampal region (wild-type rats [6]; 24 hours post injection) | Lamp-1 immunostaining in brain (cerebral cortex, cerebellum, thalamus, striatum, white matter) (Naglu KO mice [7]; 2× weekly and 3× weekly) | Lamp-1 immunoreactivity in liver (Naglu KO mice [7]; three weekly deliveries) | GFAP staining in cerebral cortex and cerebellum (astrocytes) (Naglu KO mice [7]; three weekly injections) | Iba-1 staining in cerebral cortex and cerebellum (microglial cells) (Naglu KO mice [7]; three weekly injections) | Bmax of binding/uptake [8] [nmol/h/mg] | cellular internalization (intracellular Naglu activity) [8] |
| --- | --- | --- | --- | --- | --- | --- | --- | --- | --- | --- | --- | --- | --- | --- |
| B1 | dramatic decrease | highest activity | markedly elevated levels | strong reduction | significant reduction | dramatic increase | positive staining | strong Naglu signal | decrease | reduced significantly | reduced signal | microglial cells had a reduced size and a reduced number of processes |  |  |
| B2 |  |  | markedly elevated levels |  |  |  | little to no Naglu signal |  |  |  |  |  | 2060 | effectively internalized |
| B3 |  |  | markedly elevated levels |  |  |  | little to no Naglu signal |  |  |  |  |  |  | only a very limited increase |
